Our source for the Kd and EC50 of cellular uptake (human fibroblasts, 18 hrs, rhI2S in lysate by ELISA) values is patent publication US20130330802A1.

The target in assay [1] is His-tagged-hMPR9 (domain 9 of human mannose-6-phosphate receptor with C-terminal His-tag) (human) (UniProt P11717). The assay can be described thus: SPR (Biacore T100), His-tagged-hMPR9 on NTA chip, rhI2S as analyte. (SPR reads the build-up and loss of mass on a sensor chip optically.)
For assay [2], the target named is mannose 6-phosphate (M6P) receptor on cultured human fibroblasts (CCD-1076SK) (human) (UniProt P11717). The assay can be described thus: cell-based or functional assay.
Assay [3] deals with mannose 6-phosphate (M6P) receptor on cultured human fibroblasts (CCD-1076SK) (human), P11717. The assay can be described thus: cell-based or functional assay.
Sequence of mannose 6-phosphate (M6P) receptor on cultured human fibroblasts (CCD-1076SK) (human), P11717 (P11717 41-2491): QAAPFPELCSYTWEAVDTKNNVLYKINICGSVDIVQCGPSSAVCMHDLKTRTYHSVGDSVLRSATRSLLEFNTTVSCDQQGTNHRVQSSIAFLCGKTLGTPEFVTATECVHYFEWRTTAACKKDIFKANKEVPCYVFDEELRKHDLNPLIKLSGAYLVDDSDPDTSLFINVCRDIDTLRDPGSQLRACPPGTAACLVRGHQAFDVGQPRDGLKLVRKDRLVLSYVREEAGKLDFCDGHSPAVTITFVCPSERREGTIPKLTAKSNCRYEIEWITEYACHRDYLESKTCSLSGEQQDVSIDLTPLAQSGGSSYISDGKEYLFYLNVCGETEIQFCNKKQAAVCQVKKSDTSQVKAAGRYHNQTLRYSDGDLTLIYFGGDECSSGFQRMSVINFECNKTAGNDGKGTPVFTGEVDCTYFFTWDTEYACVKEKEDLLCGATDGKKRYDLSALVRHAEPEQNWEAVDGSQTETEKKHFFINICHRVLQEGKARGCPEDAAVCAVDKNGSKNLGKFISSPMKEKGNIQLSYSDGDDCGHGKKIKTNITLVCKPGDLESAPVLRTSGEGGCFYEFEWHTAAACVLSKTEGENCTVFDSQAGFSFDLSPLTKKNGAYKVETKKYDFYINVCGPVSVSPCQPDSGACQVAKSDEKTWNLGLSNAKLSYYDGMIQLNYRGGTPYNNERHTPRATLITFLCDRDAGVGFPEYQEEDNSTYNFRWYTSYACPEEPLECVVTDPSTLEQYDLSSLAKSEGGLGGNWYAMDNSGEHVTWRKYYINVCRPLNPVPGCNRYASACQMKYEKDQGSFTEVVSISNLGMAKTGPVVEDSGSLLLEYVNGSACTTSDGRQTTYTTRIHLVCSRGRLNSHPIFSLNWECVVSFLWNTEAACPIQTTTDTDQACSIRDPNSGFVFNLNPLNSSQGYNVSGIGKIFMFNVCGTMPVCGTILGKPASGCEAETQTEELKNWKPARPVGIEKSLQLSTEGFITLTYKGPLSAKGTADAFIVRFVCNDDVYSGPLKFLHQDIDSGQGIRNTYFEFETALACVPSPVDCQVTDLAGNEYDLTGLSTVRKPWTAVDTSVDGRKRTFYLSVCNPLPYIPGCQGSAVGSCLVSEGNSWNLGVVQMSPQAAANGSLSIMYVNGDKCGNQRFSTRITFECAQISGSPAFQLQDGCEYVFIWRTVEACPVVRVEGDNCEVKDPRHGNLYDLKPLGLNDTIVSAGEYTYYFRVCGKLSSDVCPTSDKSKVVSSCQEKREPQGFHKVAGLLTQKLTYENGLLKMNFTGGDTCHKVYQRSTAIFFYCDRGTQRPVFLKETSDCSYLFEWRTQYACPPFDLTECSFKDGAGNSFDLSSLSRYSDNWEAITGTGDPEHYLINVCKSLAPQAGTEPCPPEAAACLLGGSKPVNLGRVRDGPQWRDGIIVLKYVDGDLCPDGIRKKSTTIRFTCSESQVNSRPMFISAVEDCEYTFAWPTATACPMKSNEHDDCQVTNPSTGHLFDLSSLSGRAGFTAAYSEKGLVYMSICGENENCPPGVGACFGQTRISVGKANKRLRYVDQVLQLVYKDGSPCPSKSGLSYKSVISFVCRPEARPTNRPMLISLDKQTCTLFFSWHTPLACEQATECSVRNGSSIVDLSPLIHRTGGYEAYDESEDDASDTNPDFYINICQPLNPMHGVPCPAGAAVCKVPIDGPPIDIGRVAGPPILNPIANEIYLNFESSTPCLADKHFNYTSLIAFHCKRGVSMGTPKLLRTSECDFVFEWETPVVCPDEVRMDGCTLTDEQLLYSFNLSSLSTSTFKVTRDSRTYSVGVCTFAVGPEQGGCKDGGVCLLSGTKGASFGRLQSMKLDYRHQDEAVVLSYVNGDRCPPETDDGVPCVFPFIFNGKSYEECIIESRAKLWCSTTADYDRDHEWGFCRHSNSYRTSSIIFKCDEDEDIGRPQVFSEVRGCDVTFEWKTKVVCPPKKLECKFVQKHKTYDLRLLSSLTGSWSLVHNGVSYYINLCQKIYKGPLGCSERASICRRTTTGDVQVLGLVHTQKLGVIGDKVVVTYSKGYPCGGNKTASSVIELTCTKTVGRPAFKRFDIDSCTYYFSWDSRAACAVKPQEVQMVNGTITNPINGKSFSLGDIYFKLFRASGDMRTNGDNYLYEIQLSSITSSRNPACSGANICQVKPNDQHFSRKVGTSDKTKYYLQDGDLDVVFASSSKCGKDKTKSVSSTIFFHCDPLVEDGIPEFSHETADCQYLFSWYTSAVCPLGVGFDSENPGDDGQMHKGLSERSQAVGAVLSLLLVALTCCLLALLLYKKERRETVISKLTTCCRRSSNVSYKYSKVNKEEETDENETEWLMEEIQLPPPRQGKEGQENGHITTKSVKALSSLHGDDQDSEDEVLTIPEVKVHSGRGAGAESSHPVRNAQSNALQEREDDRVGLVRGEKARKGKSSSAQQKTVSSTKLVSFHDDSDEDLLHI
For assay [4], the target named is His-tagged-hMPR9 (domain 9 of human mannose-6-phosphate receptor with C-terminal His-tag) (human) (UniProt P11717). The assay can be described thus: SPR (Biacore T100), His-tagged-hMPR9 on NTA chip, rhI2S as analyte; low end of range over lots 1-7.
Assay [5] shares this target. The assay can be described thus: SPR (Biacore T100), His-tagged-hMPR9 on NTA chip, rhI2S as analyte; high end of range over lots 1-7.
For assay [6] the target is unchanged. The assay can be described thus: SPR (Biacore T100), His-tagged-hMPR9 on NTA chip, rhI2S as analyte; average of lots 1-7.

In turn, “commercially-available medicinal rhI2S (from UniProt P22304 26-550) (enzyme)” came in with a Kd in assay [1] of 3.32 nM. The same molecule returned an EC50 of cellular uptake (human fibroblasts, 18 hrs, rhI2S in lysate by ELISA) in assay [2] of 1.46 µg/mL.

B1: recombinant human iduronate 2-sulfatase (rhI2S) of the present invention (Lot Nos. 1-7), P22304 26-550 (enzyme)
chain: SETQANSTTDALNVLLIIVDDLRPSLGCYGDKLVRSPNIDQLASHSLLFQNAFAQQAVCAPSRVSFLTGRRPDTTRLYDFNSYWRVHAGNFSTIPQYFKENGYVTMSVGKVFHPGISSNHTDDSPYSWSFPPYHPSSEKYENTKTCRGPDGELHANLLCPVDVLDVPEGTLPDKQSTEQAIQLLEKMKTSASPFFLAVGYHKPHIPFRYPKEFQKLYPLENITLAPDPEVPDGLPPVAYNPWMDIRQREDVQALNISVPYGPIPVDFQRKIRQSYFASVSYLDTQVGRLLSALDDLQLANSTIIAFTSDHGWALGEHGEWAKYSNFDVATHVPLIFYVPGRTASLPEAGEKLFPYLDPFDSASQLMEPGRQSMDLVELVSLFPTLAGLAGLQVPPRCPVPSFHVELCREGKNLLKHFRFRDLEEDPYLPGNPRELIAYSQYPRPSDIPQWNSDKPSLKDIKIMGYSIRTIDYRYTVWVGFNPDEFLANFSDIHAGELYFVDSDPLQDHNMYNDSQGGDLFQLLMP
modifications: here or on the partner: glycosylated; linked oligosaccharide chains containing mannose-6-phosphate residues, 3.74-5.38 mol/mol (average 4.37 mol/mol)
With B1, the EC50 of cellular uptake (human fibroblasts, 18 hrs, rhI2S in lysate by ELISA) in assay [3] came to 0.452 µg/mL.

B2: recombinant human iduronate 2-sulfatase (rhI2S) of the present invention (Lot Nos. 1-7) (enzyme)
chain: SETQANSTTDALNVLLIIVDDLRPSLGCYGDKLVRSPNIDQLASHSLLFQNAFAQQAVCAPSRVSFLTGRRPDTTRLYDFNSYWRVHAGNFSTIPQYFKENGYVTMSVGKVFHPGISSNHTDDSPYSWSFPPYHPSSEKYENTKTCRGPDGELHANLLCPVDVLDVPEGTLPDKQSTEQAIQLLEKMKTSASPFFLAVGYHKPHIPFRYPKEFQKLYPLENITLAPDPEVPDGLPPVAYNPWMDIRQREDVQALNISVPYGPIPVDFQRKIRQSYFASVSYLDTQVGRLLSALDDLQLANSTIIAFTSDHGWALGEHGEWAKYSNFDVATHVPLIFYVPGRTASLPEAGEKLFPYLDPFDSASQLMEPGRQSMDLVELVSLFPTLAGLAGLQVPPRCPVPSFHVELCREGKNLLKHFRFRDLEEDPYLPGNPRELIAYSQYPRPSDIPQWNSDKPSLKDIKIMGYSIRTIDYRYTVWVGFNPDEFLANFSDIHAGELYFVDSDPLQDHNMYNDSQGGDLFQLLMP
modifications: glycosylated; linked oligosaccharide chains containing mannose-6-phosphate residues, 3.74-5.38 mol/mol (average 4.37 mol/mol)
For B2, the values for the dissociation constant (Kd) in assay [4], in assay [5] and in assay [6] were 0.758 nM, 1.23 nM and 1.04 nM, respectively.

By Kd is commonly meant the free concentration of one partner at which half of the binding sites on the other are occupied at equilibrium, for simple one-to-one binding. A low value points to tighter binding.
